Measurements taken from EP4692114A1, “CALCITONIN ANALOGUE, AND DERIVATIVE THEREOF AND USE THEREOF” (Hangzhou Sciwind Biosciences Co., Ltd., priority 2023, dated 2024).
*1 amine or outer side, *2 acyl side, *3 side chain or, on linkers, in order; H or OH if unused. [ ]: non-standard residue; d: D form. The star is where a group is joined. C20 diacid = O=C(O)CCCCCCCCCCCCCCCCCCC(=O)*; C18 diacid = O=C(O)CCCCCCCCCCCCCCCCC(=O)*; γGlu = O=C(O)[C@H](CCC(=O)[*:2])N[*:1]; βAsp = O=C(O)[C@H](CC(=O)[*:2])N[*:1]; AEEA = NCCOCCOCC(=O)O

T1: human amylin receptor (AMY3) on CHO-K1/Gal5/AMY3 cells (human, UniProt P30988 25-474; O60896 24-148)
T1 sequence (looked up) 1: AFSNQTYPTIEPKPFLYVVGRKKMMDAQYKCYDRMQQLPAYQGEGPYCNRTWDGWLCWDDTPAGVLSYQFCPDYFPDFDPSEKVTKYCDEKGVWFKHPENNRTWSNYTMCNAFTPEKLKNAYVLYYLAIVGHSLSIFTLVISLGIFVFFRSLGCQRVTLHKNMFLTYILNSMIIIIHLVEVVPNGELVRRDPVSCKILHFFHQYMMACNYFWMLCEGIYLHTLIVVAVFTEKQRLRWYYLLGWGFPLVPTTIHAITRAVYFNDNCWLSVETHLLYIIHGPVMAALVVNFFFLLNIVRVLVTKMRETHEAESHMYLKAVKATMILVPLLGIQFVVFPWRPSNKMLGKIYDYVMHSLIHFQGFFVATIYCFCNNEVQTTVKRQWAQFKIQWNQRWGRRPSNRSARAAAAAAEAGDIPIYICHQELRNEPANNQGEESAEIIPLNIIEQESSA
T1 sequence (looked up) 2: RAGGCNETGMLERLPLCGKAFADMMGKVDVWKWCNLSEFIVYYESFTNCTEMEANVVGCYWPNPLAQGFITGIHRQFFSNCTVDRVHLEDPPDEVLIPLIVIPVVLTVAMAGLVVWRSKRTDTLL

B1: calcitonin derivative M26 (peptide)
peptide: {C20 diacid-γGlu}-VSQLSTVVLGRLSQELHRLQDYPRTDVGSGSP-NH2
SMILES: CC(C)C[C@H](NC(=O)[C@H](CCCNC(=N)N)NC(=O)CNC(=O)[C@H](CC(C)C)NC(=O)[C@@H](NC(=O)[C@@H](NC(=O)[C@@H](NC(=O)[C@H](CO)NC(=O)[C@H](CC(C)C)NC(=O)[C@H](CCC(N)=O)NC(=O)[C@H](CO)NC(=O)[C@@H](NC(=O)CC[C@H](NC(=O)CCCCCCCCCCCCCCCCCCC(=O)O)C(=O)O)C(C)C)[C@@H](C)O)C(C)C)C(C)C)C(=O)N[C@@H](CO)C(=O)N[C@@H](CCC(N)=O)C(=O)N[C@@H](CCC(=O)O)C(=O)N[C@@H](CC(C)C)C(=O)N[C@@H](Cc1c[nH]cn1)C(=O)N[C@@H](CCCNC(=N)N)C(=O)N[C@@H](CC(C)C)C(=O)N[C@@H](CCC(N)=O)C(=O)N[C@@H](CC(=O)O)C(=O)N[C@@H](Cc1ccc(O)cc1)C(=O)N1CCC[C@H]1C(=O)N[C@@H](CCCNC(=N)N)C(=O)N[C@H](C(=O)N[C@@H](CC(=O)O)C(=O)N[C@H](C(=O)NCC(=O)N[C@@H](CO)C(=O)NCC(=O)N[C@@H](CO)C(=O)N1CCC[C@H]1C(N)=O)C(C)C)[C@@H](C)O
B2: calcitonin derivative M42 (peptide)
peptide: {C18 diacid}-EASQLSTAVLGRLSDELHRLQDYPRTDVGSGSP-NH2
SMILES: CC(C)C[C@H](NC(=O)[C@H](CCCNC(=N)N)NC(=O)CNC(=O)[C@H](CC(C)C)NC(=O)[C@@H](NC(=O)[C@H](C)NC(=O)[C@@H](NC(=O)[C@H](CO)NC(=O)[C@H](CC(C)C)NC(=O)[C@H](CCC(N)=O)NC(=O)[C@H](CO)NC(=O)[C@H](C)NC(=O)[C@H](CCC(=O)O)NC(=O)CCCCCCCCCCCCCCCCC(=O)O)[C@@H](C)O)C(C)C)C(=O)N[C@@H](CO)C(=O)N[C@@H](CC(=O)O)C(=O)N[C@@H](CCC(=O)O)C(=O)N[C@@H](CC(C)C)C(=O)N[C@@H](Cc1c[nH]cn1)C(=O)N[C@@H](CCCNC(=N)N)C(=O)N[C@@H](CC(C)C)C(=O)N[C@@H](CCC(N)=O)C(=O)N[C@@H](CC(=O)O)C(=O)N[C@@H](Cc1ccc(O)cc1)C(=O)N1CCC[C@H]1C(=O)N[C@@H](CCCNC(=N)N)C(=O)N[C@H](C(=O)N[C@@H](CC(=O)O)C(=O)N[C@H](C(=O)NCC(=O)N[C@@H](CO)C(=O)NCC(=O)N[C@@H](CO)C(=O)N1CCC[C@H]1C(N)=O)C(C)C)[C@@H](C)O
B3: calcitonin derivative M25 (peptide)
peptide: {C20 diacid-γGlu}-LSQLSTLVLGRLSQELHRLQDYPRTDVGSGSP-NH2
SMILES: CC(C)C[C@H](NC(=O)CC[C@H](NC(=O)CCCCCCCCCCCCCCCCCCC(=O)O)C(=O)O)C(=O)N[C@@H](CO)C(=O)N[C@@H](CCC(N)=O)C(=O)N[C@@H](CC(C)C)C(=O)N[C@@H](CO)C(=O)N[C@H](C(=O)N[C@@H](CC(C)C)C(=O)N[C@H](C(=O)N[C@@H](CC(C)C)C(=O)NCC(=O)N[C@@H](CCCNC(=N)N)C(=O)N[C@@H](CC(C)C)C(=O)N[C@@H](CO)C(=O)N[C@@H](CCC(N)=O)C(=O)N[C@@H](CCC(=O)O)C(=O)N[C@@H](CC(C)C)C(=O)N[C@@H](Cc1c[nH]cn1)C(=O)N[C@@H](CCCNC(=N)N)C(=O)N[C@@H](CC(C)C)C(=O)N[C@@H](CCC(N)=O)C(=O)N[C@@H](CC(=O)O)C(=O)N[C@@H](Cc1ccc(O)cc1)C(=O)N1CCC[C@H]1C(=O)N[C@@H](CCCNC(=N)N)C(=O)N[C@H](C(=O)N[C@@H](CC(=O)O)C(=O)N[C@H](C(=O)NCC(=O)N[C@@H](CO)C(=O)NCC(=O)N[C@@H](CO)C(=O)N1CCC[C@H]1C(N)=O)C(C)C)[C@@H](C)O)C(C)C)[C@@H](C)O
B4: calcitonin derivative M59 (peptide)
peptide: {C20 diacid-βAsp-AEEA-AEEA}-ASQLSTAVLGRLSEELHRLQDYPRTDVGSGSP-NH2
SMILES: CC(C)C[C@H](NC(=O)[C@H](CCCNC(=N)N)NC(=O)CNC(=O)[C@H](CC(C)C)NC(=O)[C@@H](NC(=O)[C@H](C)NC(=O)[C@@H](NC(=O)[C@H](CO)NC(=O)[C@H](CC(C)C)NC(=O)[C@H](CCC(N)=O)NC(=O)[C@H](CO)NC(=O)[C@H](C)NC(=O)COCCOCCNC(=O)COCCOCCNC(=O)C[C@H](NC(=O)CCCCCCCCCCCCCCCCCCC(=O)O)C(=O)O)[C@@H](C)O)C(C)C)C(=O)N[C@@H](CO)C(=O)N[C@@H](CCC(=O)O)C(=O)N[C@@H](CCC(=O)O)C(=O)N[C@@H](CC(C)C)C(=O)N[C@@H](Cc1c[nH]cn1)C(=O)N[C@@H](CCCNC(=N)N)C(=O)N[C@@H](CC(C)C)C(=O)N[C@@H](CCC(N)=O)C(=O)N[C@@H](CC(=O)O)C(=O)N[C@@H](Cc1ccc(O)cc1)C(=O)N1CCC[C@H]1C(=O)N[C@@H](CCCNC(=N)N)C(=O)N[C@H](C(=O)N[C@@H](CC(=O)O)C(=O)N[C@H](C(=O)NCC(=O)N[C@@H](CO)C(=O)NCC(=O)N[C@@H](CO)C(=O)N1CCC[C@H]1C(N)=O)C(C)C)[C@@H](C)O
B5: calcitonin derivative M58 (peptide)
peptide: {C20 diacid}-E[AEEA][AEEA]ASQLSTAVLGRLSEELHRLQDYPRTDVGSGSP-NH2
SMILES: CC(C)C[C@H](NC(=O)[C@H](CCCNC(=N)N)NC(=O)CNC(=O)[C@H](CC(C)C)NC(=O)[C@@H](NC(=O)[C@H](C)NC(=O)[C@@H](NC(=O)[C@H](CO)NC(=O)[C@H](CC(C)C)NC(=O)[C@H](CCC(N)=O)NC(=O)[C@H](CO)NC(=O)[C@H](C)NC(=O)COCCOCCNC(=O)COCCOCCNC(=O)[C@H](CCC(=O)O)NC(=O)CCCCCCCCCCCCCCCCCCC(=O)O)[C@@H](C)O)C(C)C)C(=O)N[C@@H](CO)C(=O)N[C@@H](CCC(=O)O)C(=O)N[C@@H](CCC(=O)O)C(=O)N[C@@H](CC(C)C)C(=O)N[C@@H](Cc1c[nH]cn1)C(=O)N[C@@H](CCCNC(=N)N)C(=O)N[C@@H](CC(C)C)C(=O)N[C@@H](CCC(N)=O)C(=O)N[C@@H](CC(=O)O)C(=O)N[C@@H](Cc1ccc(O)cc1)C(=O)N1CCC[C@H]1C(=O)N[C@@H](CCCNC(=N)N)C(=O)N[C@H](C(=O)N[C@@H](CC(=O)O)C(=O)N[C@H](C(=O)NCC(=O)N[C@@H](CO)C(=O)NCC(=O)N[C@@H](CO)C(=O)N1CCC[C@H]1C(N)=O)C(C)C)[C@@H](C)O
B6: calcitonin derivative M11 (peptide)
peptide: {C20 diacid-γGlu}-ASQLSTAVLGRLSSELHRLQDYPRTDVGSGSP-NH2
SMILES: CC(C)C[C@H](NC(=O)[C@H](CCCNC(=N)N)NC(=O)CNC(=O)[C@H](CC(C)C)NC(=O)[C@@H](NC(=O)[C@H](C)NC(=O)[C@@H](NC(=O)[C@H](CO)NC(=O)[C@H](CC(C)C)NC(=O)[C@H](CCC(N)=O)NC(=O)[C@H](CO)NC(=O)[C@H](C)NC(=O)CC[C@H](NC(=O)CCCCCCCCCCCCCCCCCCC(=O)O)C(=O)O)[C@@H](C)O)C(C)C)C(=O)N[C@@H](CO)C(=O)N[C@@H](CO)C(=O)N[C@@H](CCC(=O)O)C(=O)N[C@@H](CC(C)C)C(=O)N[C@@H](Cc1c[nH]cn1)C(=O)N[C@@H](CCCNC(=N)N)C(=O)N[C@@H](CC(C)C)C(=O)N[C@@H](CCC(N)=O)C(=O)N[C@@H](CC(=O)O)C(=O)N[C@@H](Cc1ccc(O)cc1)C(=O)N1CCC[C@H]1C(=O)N[C@@H](CCCNC(=N)N)C(=O)N[C@H](C(=O)N[C@@H](CC(=O)O)C(=O)N[C@H](C(=O)NCC(=O)N[C@@H](CO)C(=O)NCC(=O)N[C@@H](CO)C(=O)N1CCC[C@H]1C(N)=O)C(C)C)[C@@H](C)O
B7: calcitonin derivative M36 (peptide)
peptide: {C20 diacid-γGlu}-KSQLSTEVLGRLSQELHRLQDYPRTDVGSGSP-NH2
SMILES: CC(C)C[C@H](NC(=O)[C@H](CCCNC(=N)N)NC(=O)CNC(=O)[C@H](CC(C)C)NC(=O)[C@@H](NC(=O)[C@H](CCC(=O)O)NC(=O)[C@@H](NC(=O)[C@H](CO)NC(=O)[C@H](CC(C)C)NC(=O)[C@H](CCC(N)=O)NC(=O)[C@H](CO)NC(=O)[C@H](CCCCN)NC(=O)CC[C@H](NC(=O)CCCCCCCCCCCCCCCCCCC(=O)O)C(=O)O)[C@@H](C)O)C(C)C)C(=O)N[C@@H](CO)C(=O)N[C@@H](CCC(N)=O)C(=O)N[C@@H](CCC(=O)O)C(=O)N[C@@H](CC(C)C)C(=O)N[C@@H](Cc1c[nH]cn1)C(=O)N[C@@H](CCCNC(=N)N)C(=O)N[C@@H](CC(C)C)C(=O)N[C@@H](CCC(N)=O)C(=O)N[C@@H](CC(=O)O)C(=O)N[C@@H](Cc1ccc(O)cc1)C(=O)N1CCC[C@H]1C(=O)N[C@@H](CCCNC(=N)N)C(=O)N[C@H](C(=O)N[C@@H](CC(=O)O)C(=O)N[C@H](C(=O)NCC(=O)N[C@@H](CO)C(=O)NCC(=O)N[C@@H](CO)C(=O)N1CCC[C@H]1C(N)=O)C(C)C)[C@@H](C)O

Target: T1, human amylin receptor (AMY3) on …
Test: cell-based or functional assay

Binder | EC50/nM, CRE-luciferase in amylin receptor/CRE-luc CHO cells
B1 | 0.079 nM
B2 | 0.016 nM
B3 | 0.016 nM
B4 | 0.017 nM
B5 | 0.017 nM
B6 | 0.017 nM
B7 | 0.032 nM
